Measured values reported in publication PMC12677907.

Molecular target: BoABA2, purified protein (GST pull-down and enzyme assay) (cabbage (Brassica oleracea var. capitata))

Work on “BoCML37, purified protein (GST pull-down and enzyme assay) (natural protein)” yielded a BoABA2 catalytic activity in converting xanthoxin to abscisic aldehyde in vitro, co-incubated with BoCML37 in the presence of Ca2+, relative to BoABA2 alone of 3.88 fold.
